Source: paper PMC11150344 (2024)

T1: PIK3CA H1047L peptide on HLA-A*03:01 (human)
T1 peptide: ALHGGWTTK

T2: PIK3CA H1047L peptide on HLA-A*11:01 (human)
T2 peptide: ALHGGWTTK


Key:
[1] = biological target: T1, PIK3CA H1047L peptide on HLA-A*03:01; test: activation reporter or marker
[2] = biological target: T2, PIK3CA H1047L peptide on HLA-A*11:01; test: multimer staining

binding result [1]	binding result [2]	Binder
no recognition	recognises	TCR4 (TCR) alpha TRAV19*01 TRAJ49*01 CDR3: CALSEATGNQFYF beta TRBV29-1*01 TRBJ2-7*01 CDR3: CSVQTLTSSDEQYF
no recognition	recognises	TCR1 (TCR) alpha TRAV13-2*01 TRAJ49*01 CDR3: CAEGETGNQFYF beta TRBV5-1*01 TRBJ2-1*01 CDR3: CASSSGTGGFEQFF
no recognition	recognises	TCR2 (TCR) alpha TRAV12-3*01 TRAJ26*01 CDR3: CATNYGQNFVF beta TRBV29-1*01 TRBJ2-7*01 CDR3: CSVSGTSNYEQYF
no recognition	recognises	TCR5 (TCR) alpha TRAV24*01 TRAJ44*01 CDR3: CASHAGTASKLTF beta TRBV4-3*01 TRBJ2-1*01 CDR3: CASSQDVASSYNEQFF
